Laboratory results taken from article PMC6026317, “Molecular elements in FGF19 and FGF21 defining KLB/FGFR activity and specificity” (Molecular Metabolism, 2018).

Experiments:
[1] = molecular target: Human β-Klotho (KLB) on 293/KLB cells (human) (UniProt Q86Z14)
[2] = molecular target: Human β-Klotho (KLB) on 293/KLB cells (human) (UniProt Q86Z14); remark: listed apart in the source

Chain of Human β-Klotho (KLB) on 293/KLB cells (human) (Q86Z14 whole entry): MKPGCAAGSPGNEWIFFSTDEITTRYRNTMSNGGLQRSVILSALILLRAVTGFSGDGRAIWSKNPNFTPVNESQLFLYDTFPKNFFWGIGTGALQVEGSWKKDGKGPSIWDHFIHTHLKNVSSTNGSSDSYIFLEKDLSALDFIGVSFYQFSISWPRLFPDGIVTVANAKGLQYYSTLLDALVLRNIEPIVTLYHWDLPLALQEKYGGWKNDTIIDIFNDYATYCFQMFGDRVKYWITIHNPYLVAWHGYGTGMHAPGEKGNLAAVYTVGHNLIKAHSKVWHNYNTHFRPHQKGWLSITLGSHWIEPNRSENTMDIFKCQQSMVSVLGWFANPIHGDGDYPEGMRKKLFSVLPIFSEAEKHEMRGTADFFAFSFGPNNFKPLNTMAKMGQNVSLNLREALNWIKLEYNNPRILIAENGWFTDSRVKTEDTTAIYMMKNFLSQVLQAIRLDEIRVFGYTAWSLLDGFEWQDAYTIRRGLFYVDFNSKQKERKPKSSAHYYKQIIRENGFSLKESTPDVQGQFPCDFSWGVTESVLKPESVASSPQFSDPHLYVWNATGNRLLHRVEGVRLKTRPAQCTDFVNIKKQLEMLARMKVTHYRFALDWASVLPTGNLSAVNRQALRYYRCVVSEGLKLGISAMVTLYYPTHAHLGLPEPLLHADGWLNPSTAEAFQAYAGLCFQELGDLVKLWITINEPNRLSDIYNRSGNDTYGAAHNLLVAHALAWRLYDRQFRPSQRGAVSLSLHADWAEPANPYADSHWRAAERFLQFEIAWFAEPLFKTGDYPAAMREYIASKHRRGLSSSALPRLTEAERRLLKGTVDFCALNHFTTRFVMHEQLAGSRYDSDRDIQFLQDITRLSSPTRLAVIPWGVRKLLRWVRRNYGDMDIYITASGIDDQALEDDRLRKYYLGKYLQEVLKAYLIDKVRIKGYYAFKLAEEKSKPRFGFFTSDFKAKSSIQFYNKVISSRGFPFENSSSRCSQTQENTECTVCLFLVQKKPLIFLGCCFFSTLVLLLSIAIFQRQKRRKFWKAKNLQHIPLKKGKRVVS
Chain of FGF21-19A hybrid (Q9NSA1 other isoform, or with tags, fused parts or gaps): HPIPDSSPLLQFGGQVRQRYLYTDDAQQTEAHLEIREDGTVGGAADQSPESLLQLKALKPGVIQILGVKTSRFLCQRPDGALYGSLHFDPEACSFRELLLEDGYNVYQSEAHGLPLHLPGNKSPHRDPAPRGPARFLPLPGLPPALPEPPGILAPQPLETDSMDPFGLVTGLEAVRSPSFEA
Chain of 19C26,A^26 (O95750 other isoform, or with tags, fused parts or gaps): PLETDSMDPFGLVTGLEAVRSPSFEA

potency of inhibition of FGF21 and FGF19 pERK signalling in 293/KLB cells, relative to 19C26, 21C25 and FGF21^18−181 [1]	pERK agonism in 293/KLB and Hep3B cells, potency relative to native FGF21 [2]	Substance
> 20 fold	–	19C26,A^26 (from UniProt O95750 191-216) (peptide)
–	10 fold	FGF21-19A hybrid (from UniProt Q9NSA1 29-184; O95750 191-216) (ligand)
